Each block holds one sequence with its values, some of them ahead of it.
Key:
HLA-C*14:02 [1] = assay: IEDB peptide-MHC binding, purified MHC/competitive/fluorescence; filed as Kd, often an IC50 or EC50 that approximates it; ≥ and ≤ were set here for values at or beyond the usual limits of such assays; details: source organism: Escherichia coli HS
HLA-B*40:13 = assay: as above
HLA-B*15:42 = assay: as above
HLA-A*32:07 = assay: as above
HLA-C*04:01 = assay: as above; details: source organism: Escherichia coli HS
HLA-B*27:20 = assay: as above
HLA-B*48:01 = assay: as above; details: source organism: Escherichia coli HS
HLA-B*45:06 = assay: as above
HLA-B*83:01 = assay: as above
HLA-A*32:15 = assay: as above; details: source organism: Escherichia coli HS
HLA-C*06:02 [2] = assay: IEDB peptide-MHC binding, purified MHC/direct/fluorescence; filed as Kd, often an IC50 or EC50 that approximates it; ≥ and ≤ were set here for values at or beyond the usual limits of such assays; details: source organism: Escherichia coli HS
HLA-C*12:03 = assay: as above; details: source organism: Escherichia coli HS
HLA-C*03:03 = assay: as above; details: source organism: Escherichia coli HS
HLA-C*07:02 = assay: as above
HLA-A*24:02 [3] = assay: IEDB peptide-MHC binding, purified MHC/competitive/fluorescence; ≥ and ≤ were set here for values at or beyond the usual limits of such assays; details: source organism: Homo sapiens
HLA-B*40:02 = assay: as above; details: source organism: Homo sapiens
HLA-A*03:01 [4] = assay: IEDB peptide-MHC binding, purified MHC/competitive/fluorescence; filed as Kd, often an IC50 or EC50 that approximates it; ≥ and ≤ were set here for values at or beyond the usual limits of such assays
HLA-A*31:01 = assay: as above; details: source organism: Shigella flexneri 5 str. 8401
HLA-A*68:23 = assay: as above; details: source organism: Shigella flexneri 5 str. 8401
HLA-A*01:01 [5] = assay: as above; details: source organism: Corynebacterium glutamicum ATCC 13032
HLA-A*24:02 [6] = assay: as above; details: source organism: Corynebacterium glutamicum ATCC 13032
HLA-B*58:01 = assay: as above; details: source organism: Corynebacterium glutamicum ATCC 13032
HLA-B*07:02 = assay: as above; details: source organism: Corynebacterium glutamicum ATCC 13032
HLA-B*15:01 [7] = assay: as above; details: source organism: Corynebacterium glutamicum ATCC 13032
HLA-B*40:01 = assay: as above; details: source organism: Corynebacterium glutamicum ATCC 13032
HLA-B*27:05 = assay: as above; details: source organism: Corynebacterium glutamicum ATCC 13032
HLA-A*02:01 = assay: as above
HLA-B*57:01 = assay: as above; details: source organism: Zaire ebolavirus
HLA-B*35:01 = assay: as above; details: source organism: Zaire ebolavirus
HLA-B*39:01 = assay: as above; details: source organism: Zaire ebolavirus
HLA-B*51:01 = assay: as above; details: source organism: Zaire ebolavirus
HLA-A*25:01 = assay: as above; details: source organism: Zaire ebolavirus
HLA-B*27:03 = assay: as above; details: source organism: Zaire ebolavirus
HLA-A*69:01 = assay: as above; details: source organism: Zaire ebolavirus
HLA-A*26:01 = assay: as above; details: source organism: Zaire ebolavirus
HLA-A*68:02 = assay: IEDB peptide-MHC binding, purified MHC/direct/fluorescence; filed as Kd, often an IC50 or EC50 that approximates it; ≥ and ≤ were set here for values at or beyond the usual limits of such assays; details: source organism: Zaire ebolavirus
HLA-A*02:03 = assay: as above; details: source organism: Zaire ebolavirus
HLA-A*03:01 [8] = assay: as above; details: source organism: Zaire ebolavirus
HLA-A*02:11 = assay: as above; details: source organism: Zaire ebolavirus
HLA-A*02:16 = assay: as above; details: source organism: Zaire ebolavirus
HLA-B*15:01 [9] = assay: as above
HLA-A*02:12 = assay: as above; details: source organism: Zaire ebolavirus
HLA-A*02:19 = assay: as above; details: source organism: Zaire ebolavirus
HLA-C*06:02 [10] = assay: IEDB peptide-MHC binding, purified MHC/competitive/fluorescence; filed as Kd, often an IC50 or EC50 that approximates it; ≥ and ≤ were set here for values at or beyond the usual limits of such assays; details: source organism: Yersinia pseudotuberculosis IP 31758
HLA-C*14:02 [11] = assay: IEDB peptide-MHC binding, purified MHC/direct/fluorescence; filed as Kd, often an IC50 or EC50 that approximates it; ≥ and ≤ were set here for values at or beyond the usual limits of such assays; details: source organism: Yersinia pseudotuberculosis IP 31758
HLA-C*15:02 = assay: as above; details: source organism: Yersinia pseudotuberculosis IP 31758
HLA-A*01:01 [12] = assay: IEDB peptide-MHC binding, purified MHC/competitive/radioactivity; ≥ and ≤ were set here for values at or beyond the usual limits of such assays; details: source organism: Homo sapiens
HLA-A*01:01 [13] = assay: IEDB peptide-MHC binding, purified MHC/direct/fluorescence; filed as Kd, often an IC50 or EC50 that approximates it; ≥ and ≤ were set here for values at or beyond the usual limits of such assays; details: source organism: Homo sapiens
HLA-A*11:01 = assay: as above; details: source organism: Homo sapiens
[14] = source organism: Escherichia coli HS
[15] = source organism: Shigella flexneri 5 str. 8401
[16] = source organism: Corynebacterium glutamicum ATCC 13032
[17] = source organism: Yersinia pseudotuberculosis IP 31758

Sequence: MMWATAQAL
Kd (HLA-C*14:02 [1]): 6.4 nM | Kd (HLA-B*40:13; [14]): 212 nM | Kd (HLA-B*15:42; [14]): ≥ 5000 nM | Kd (HLA-A*32:07; [14]): 42 nM | Kd (HLA-C*04:01): ≥ 5000 nM | Kd (HLA-B*27:20; [14]): 6.4 nM | Kd (HLA-B*48:01): 242 nM | Kd (HLA-B*45:06; [14]): ≥ 5000 nM | Kd (HLA-B*83:01; [14]): ≥ 5000 nM | Kd (HLA-A*32:15): 391 nM | Kd (HLA-C*06:02 [2]): ≥ 20000 nM | Kd (HLA-C*12:03): 1640 nM | Kd (HLA-C*03:03): 337 nM | Kd (HLA-C*07:02; [14]): 572 nM

IC50 (HLA-A*24:02 [3]): 305 nM | IC50 (HLA-B*40:02): ≥ 20000 nM | Kd (HLA-C*07:02; source organism: Homo sapiens): 182 nM
Sequence: FYYNAFHWAI

Sequence: TTIPTNLFR
Kd (HLA-A*03:01 [4]; [15]): 3000 nM | Kd (HLA-B*15:42; [15]): ≥ 5000 nM | Kd (HLA-A*31:01): 121 nM | Kd (HLA-A*68:23): 332 nM | Kd (HLA-B*45:06; [15]): ≥ 5000 nM | Kd (HLA-B*83:01; [15]): ≥ 5000 nM

Kd (HLA-A*01:01 [5]): 14.1 nM | Kd (HLA-A*24:02 [6]): ≥ 20000 nM | Kd (HLA-B*58:01): 6.1 nM | Kd (HLA-A*03:01 [4]; [16]): 161 nM | Kd (HLA-B*07:02): ≥ 20000 nM | Kd (HLA-B*15:01 [7]): 46.5 nM | Kd (HLA-B*40:01): ≥ 20000 nM | Kd (HLA-B*27:05): ≥ 20000 nM | Kd (HLA-A*02:01; [16]): ≥ 20000 nM
Sequence: MSSAAHLLY

Sequence: NFFHASLAY
Kd (HLA-B*57:01): ≥ 20000 nM | Kd (HLA-B*35:01): 6 nM | Kd (HLA-B*39:01): ≥ 20000 nM | Kd (HLA-B*51:01): ≥ 20000 nM | Kd (HLA-A*25:01): ≥ 20000 nM | Kd (HLA-B*27:03): ≥ 20000 nM | Kd (HLA-A*69:01): ≥ 20000 nM | Kd (HLA-A*26:01): ≥ 20000 nM | Kd (HLA-A*02:01; source organism: Zaire ebolavirus): ≥ 20000 nM | Kd (HLA-A*68:02): ≥ 20000 nM | Kd (HLA-A*02:03): ≥ 20000 nM | Kd (HLA-A*03:01 [8]): ≥ 20000 nM | Kd (HLA-A*02:11): ≥ 20000 nM | Kd (HLA-A*02:16): ≥ 20000 nM | Kd (HLA-B*15:01 [9]; source organism: Sudan ebolavirus - Maleo (1979)): 64.1 nM | Kd (HLA-A*02:12): ≥ 20000 nM | Kd (HLA-A*02:19): ≥ 20000 nM

Sequence: FQWWRSHPL
Kd (HLA-B*40:13; [17]): 1.3 nM | Kd (HLA-B*15:42; [17]): ≥ 5000 nM | Kd (HLA-C*06:02 [10]): 837 nM | Kd (HLA-A*32:07; [17]): 73.6 nM | Kd (HLA-B*27:20; [17]): ≤ 0.1 nM | Kd (HLA-B*45:06; [17]): ≥ 5000 nM | Kd (HLA-A*02:01; [17]): ≤ 0.1 nM | Kd (HLA-B*83:01; [17]): 475 nM | Kd (HLA-C*14:02 [11]): 232 nM | Kd (HLA-C*15:02): 1400 nM

IC50 (HLA-A*01:01 [12]): 7 nM | Kd (HLA-A*01:01 [13]): 164 nM | Kd (HLA-A*11:01): 2020 nM | Kd (HLA-B*15:01 [9]; source organism: Homo sapiens): 1090 nM
Sequence: IVDCLTEMY

Reference: the Immune Epitope Database (IEDB)
